Measured values taken from patent publication US20260055383.

Key:
Assay in all cases: cell_activity
[1] = test system: PBx (excision-only piggyBac transposase) (synthetic construct); conditions: HEK293T, LINE1 integration 0
[2] = test system: B2M right 11 bp TAL-ssSPB (synthetic construct); conditions: paired with left 14 bp; replicate 8.87
[3] = test system: B2M right 12 bp TAL-ssSPB (synthetic construct); conditions: paired with left 14 bp; replicate 7.46
[4] = test system: B2M left 9 bp TAL-ssSPB (synthetic construct); conditions: paired with right 10 bp; replicate 4.54
[5] = test system: B2M left 10 bp TAL-ssSPB (synthetic construct); conditions: paired with right 12 bp; replicate 5.48
[6] = test system: B2M right 19 bp TAL-ssSPB (synthetic construct); conditions: paired with left 14 bp; replicate 6.05
[7] = test system: B2M right 20 bp TAL-ssSPB (synthetic construct); conditions: paired with left 14 bp; replicate 5.61
[8] = test system: B2M left 13 bp TAL-ssSPB (synthetic construct); conditions: paired with right 12 bp; replicate 8.38
[9] = test system: B2M left 14 bp TAL-ssSPB (synthetic construct); conditions: paired with right 11 bp; replicate 8.87
[10] = test system: B2M right 9 bp TAL-ssSPB (synthetic construct); conditions: paired with left 10 bp; replicate 5.72
[11] = test system: B2M right 10 bp TAL-ssSPB (synthetic construct); conditions: paired with left 9 bp; replicate 4.54
[12] = test system: B2M right 15 bp TAL-ssSPB (synthetic construct); conditions: paired with left 14 bp; replicate 4.79
[13] = test system: B2M right 16 bp TAL-ssSPB (13 bp spacing) (synthetic construct); conditions: paired with left 14 bp; replicate 7.18
[14] = test system: B2M right 16 bp TAL-ssSPB (14 bp spacing) (synthetic construct); conditions: paired with left 14 bp; replicate 7.76
[15] = test system: B2M right 17 bp TAL-ssSPB (13 bp spacing) (synthetic construct); conditions: paired with left 14 bp; replicate 4.52
[16] = test system: TAL-ssSPB off-target (not specific for LINE1) (synthetic construct); conditions: off-target control; excision 34.56
[17] = test system: LINE1 R2.2 TAL-ssSPB S301A S301A (synthetic construct); conditions: excision 39.72
[18] = test system: LINE1 R2.2 TAL-ssSPB M226F M226F (synthetic construct); conditions: excision 45.14
[19] = test system: LINE1 R2.2 TAL-ssSPB K500R K500R (synthetic construct); conditions: excision 33.92
[20] = test system: B2M right 17 bp TAL-ssSPB (14 bp spacing) (synthetic construct); conditions: paired with left 14 bp; replicate 5.14
[21] = test system: B2M right 18 bp TAL-ssSPB (synthetic construct); conditions: paired with left 14 bp; replicate 7.49

CCCTAGAAAGATAATCATGCGTAAAATTGACGCATG (double strand) [Symmetrical ITR 1bpSNP]
activity (% GFP positive cells) [1]: 91.3

CCCTAGAAAGATAGTCTGCGTAAAATTGACGCATG (double strand) [Symmetrical ITR 0 bp]
activity (% GFP positive cells) [1]: 91

CCCTAGAAAGATAGTCTGCGTAAAATTGACGCATG / CCCTAGAAAGATAATCATATTGTGACGTACGTTAAAGATAATCATGCGTAAAATTGACGCATG [WT transposon ITRs (35 bp LE / 63 bp RE)]
activity (% GFP positive cells) [1]: 98.8

TCTGAGCTTCTA (double strand) [B2M right 11 bp target]
activity (% B2M alleles edited) [2]: 7.63

TCTGAGCTTCTAA (double strand) [B2M right 12 bp target]
activity (% B2M alleles edited) [3]: 6.8

TCTGTGCTCT (double strand) [B2M left 9 bp target]
activity (% B2M alleles edited) [4]: 5.38

TCTGTGCTCTG (double strand) [B2M left 10 bp target]
activity (% B2M alleles edited) [5]: 6.02

TCTTTGCATCTGAGCTTCTA (double strand) [B2M right 19 bp target]
activity (% B2M alleles edited) [6]: 5.45

TCTTTGCATCTGAGCTTCTAA (double strand) [B2M right 20 bp target]
activity (% B2M alleles edited) [7]: 4.65

TGAATCTGTGCTCT (double strand) [B2M left 13 bp target]
activity (% B2M alleles edited) [8]: 6.55

TGAATCTGTGCTCTG (double strand) [B2M left 14 bp target]
activity (% B2M alleles edited) [9]: 7.63

TGAGCTTCTA (double strand) [B2M right 9 bp target]
activity (% B2M alleles edited) [10]: 5.73

TGAGCTTCTAA (double strand) [B2M right 10 bp target]
activity (% B2M alleles edited) [11]: 5.38

TGCATCTGAGCTTCTA (double strand) [B2M right 15 bp target]
activity (% B2M alleles edited) [12]: 6.25

TGCATCTGAGCTTCTAA (double strand) [B2M right 16 bp target, 13 bp spacing]
activity (% B2M alleles edited) [13]: 6

TTGCATCTGAGCTTCTA (double strand) [B2M right 16 bp target, 14 bp spacing]
activity (% B2M alleles edited) [14]: 6.39

TTGCATCTGAGCTTCTAA (double strand) [B2M right 17 bp target, 13 bp spacing]
activity (% B2M alleles edited) [15]: 5.66

TTGTCTCTTTT (double strand) [LINE1 R2.2 right target]
activity (% mScarlet positive cells) [16]: 0.29
activity (% mScarlet positive cells) [17]: 20.2
activity (% mScarlet positive cells) [18]: 21.6
activity (% mScarlet positive cells) [19]: 19.1

TTTGCATCTGAGCTTCTA (double strand) [B2M right 17 bp target, 14 bp spacing]
activity (% B2M alleles edited) [20]: 4.96

TTTGCATCTGAGCTTCTAA (double strand) [B2M right 18 bp target]
activity (% B2M alleles edited) [21]: 5.76
